# Measured values taken from patent publication US20240026407A1, “MODIFICATION OF SAPONINS” (GLAXOSMITHKLINE BIOLOGICALS SA, priority 2020, published 2024).
# Key:
# Assay type in all cases: biochemical, Quillaja saponaria
# [1] = Experiment 4-1: screening of glucosidases for deglycosylation with purified QS-18 (0.04 mg/ml) at pH 7.5 and room temperature; conditions: pH 7.5, room temperature, 20 h, clarified E. coli lysate, QS-18 2150 to QS-21 1988 by LCMS/MS
# Procedure, shortened: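 Candidate glucosidases expressed in E. coli BL21(DE3) (pET24b+, autoinduction, 20 °C for 20 h); clarified lysates in 100 mM potassium phosphate pH 7.5 incubated with QS-18 (0.04 mg/ml final) 20 h at room temperature. Quenched with MeCN, analysed by LC-MS/MS for % conversion; hits >3 S.D. above negative control.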
# [2] = Experiment 4-4: screening of glucosidases for deglycosylation of QS-18 in crude bark extract (1 in 20 dilution) to QS-21; conditions: CBE 1 in 20 dilution, pH 6, 25 degC, 18 hours; % conversion of Middle Peak by UV HPLC
# Protocol: Lysates were prepared as in Experiment 4-2.
# Crude bark extract (CBE) was adjusted to pH 6 by dropwise addition of 2M NaOH with stirring. 25 uL of clarified lysate was transferred to a reaction plate, 22.5 ul of 100 mM potassium phosphate buffer pH 6 was added, 2.5 ul CBE at pH 6 was added. Reaction plates were sealed, incubated at 25 degC with shaking for 18 hours, then quenched by addition of 50 uL acetonitrile (MeCN). Quenched reaction plates were re-sealed and incubated at 20 degC with shaking for 10 min. The reaction plates were centrifuged (10 min, 4 degC) and analysed by UV HPLC with the method below:
# Three key peaks of interest are apparent using this chromatography: Left Peak (retention time approximately 2.30-2.35 min) comprising mainly QS-17 family components; Middle Peak (retention time approximately 2.37-2.42 min) comprising mainly QS-18 family components and desglucosyl-QS-17 family components; and Right Peak (retention time approximately 2.44-2.50 min) comprising mainly QS-21 family components. Peak identity was supported by MS/MS.
# Enzyme activity is calculated as the % conversion of the Middle Peak present in the crude bark extract: […]
# [3] = Experiment 4-2: screening of glucosidases for deglycosylation with purified QS-18 (1 mg/ml) at pH 6 and 30 deg C; conditions: pH 6, 30 degC, 18 hrs, clarified lysate, LCMS/MS
# Procedure, shortened: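 Clarified lysates of glucosidase-expressing cells in 100 mM potassium phosphate pH 6 were incubated 18 h at 30 °C with QS-18 at 1 mg/ml final. Reactions quenched with MeCN; deglycosylation activity determined by LC-MS/MS.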
Molecule,Expt 4-1 % conv [1],Expt 4-4 % conv [2],Expt 4-2 % conv [3]
"133 (protein, listed as Aquimixticola soesokkakensis) MTDSTATPPDPIAAKLTFARGRDYWTTQAAPEIGLRALRFADGPHGLRVQDDENPDHLGLERSAPATCFPPAVTLASSWDAALIEEVGAALGREARAAGVDVVLGPGLNLKRSPLCGRNFEYYSEDPMLSGLLAGASARGIQSVGVGACLKHFAANSQEGDRNRISADIDERSLRELYLRNFQLALEASGAWSIMTSYNRINGLHASQDPWLLTQVLREEWGFDGLVISDWGGVYDPVAALKAGMDLRMPGGALDDRLIAAHARGEIAEGDLDRVIANTTRLAERTRPRDTDVPPDVEAHHALVRRAAAESSVLLKNDGVLPLDPARYPKVAILGELARTPRIQGSGSSRVHPRRVVAPLDVLRERLAQSGAQVAFAPAYGLQNGPADAALITEALQVARDADIVLLFSGLTDAAEAEGSDRTHIDLPDQQLTLLAALADCDTPLVVSLANGAVVRSTQWRDTAQAIVEFWLSGQAHGETVADVLLGDVPPAGRLAQTIPRRLQDTPAFLDFPGEHRHVRHSEGLHIGYRWYDARDLAVDYPFGHGLSYTSFDYEELEIDVRASDDDIAFVARLTLRNSGARAGSEVVQLYASDPSTAYQTPPRELRGWQKVHLEAGESCAVSIPVKRAHLGHWHSGLKRWVFAGGPMTLHVGASSRDLRLTCETELHGEALPVVLTPWSLFGEWMQHPVMGPRIEALFASRGGVKGRAGDLLSDPAGRNTVYINPLAMLAQFPGVPLDQSDLETLCAEAAALA",3.7%,<3%,0.4%
"9 (protein, listed as Streptomyces rubrolavendulae) MTADEAVEAALGALDLDTKARLLAGQDMWTLPAVPAVGLASLVMSDGPVGVRGVRWTADDPSVTLPSPTALAACWDPELARRAGRLLAQEARRKGVHVVLAPTVNLHRSPLGGRHFEAYSEDPYLTAETGAACVRGIQDGGVAATVKHFVANDAETDRFTVDNTVPPRALRELYLAPFEAIVRCARPWALMAAYNQVNGVTMTENRHLQTEVLRDAWGFDGVVVSDWFAARSTTGALVGGLDVAMPGPHTVYGDALAAAVRAGDVDEALVDRSVRRVLRLAARVGALEGAEPAVPSPPAHVDGEALAREIAHRSFVLVRNECGALPLDPARSRRVALVGAAARDARVLGGGSAHVFPARTVSPLDGLAAALPEGTELVHARGADLSGEPAPAGPGFALRAVCRDAEGTVLADVPLPSGQIQWIGADLPGGVTHEALHTVEVTGTYTPREGGAHGFGTRGVGAFTLTVGGRVLYDGTREAEPAGDPFEAFAGTPAEHGAADLAEGVPVEVSLRHTVDRDRPAPLPAVVFSLLHRPPRRDPDELIAEAVEAARGADAAVVVVATTERVESEGFDRADLRLPGRQDDLVRAVAAANPRTVVVVNAGAPVEMPWRDDVAAVLLTWFPGQEGGAALADVLLGAEEPGGRLPTTWPAALADAPVTAVTPVDGELRYEEGPFIGYRAWDRAPGGPAPAYPFGHGLGYTTWEYESLVVTPATARVRVRNTGTRPGREVIQLYVAPRADLAERPARWLVGFASVTAGPGARAEAEIRFAPRPFDVWDEEAGAWTAVPGQYEIRAGRSLTDTRLTVTLELD",9.2%,<3%,0.9%
"338 (protein, listed as Hungateiclostridium thermocellum) MAVDIKKIIKQMTLEEKAGLCSGLDFWHTKPVERLGIPSIMMTDGPHGLRKQREDAEIADINNSVPATCFPSAAGLACSWDRELVERVGAALGEECQAENVSILLGPGANIKRSPLCGRNFEYFSEDPYLSSELAASHIKGVQSQGVGACLKHFAANNQEHRRMTVDTIVDERTLREIYFASFENAVKKARPWVVMCAYNKLNGEYCSENRYLLTEVLKNEWMHDGFVVSDWGAVNDRVSGLDAGLDLEMPTSHGITDKKIVEAVKSGKLSENILNRAVERILKVIFMALENKKENAQYDKDAHHRLARQAAAESMVLLKNEDDVLPLKKSGTIALIGAFVKKPRYQGSGSSHITPTRLDDIYEEIKKAGGDKVNLVYSEGYRLENDGIDEELINEAKKAASSSDVAVVFAGLPDEYESEGFDRTHMSIPENQNRLIEAVAEVQSNIVVVLLNGSPVEMPWIDKVKSVLEAYLGGQALGGALADVLFGEVNPSGKLAETFPVKLSHNPSYLNFPGEDDRVEYKEGLFVGYRYYDTKGIEPLFPFGHGLSYTKFEYSDISVDKKDVSDNSIINVSVKVKNVGKMAGKEIVQLYVKDVKSSVRRPEKELKGFEKVFLNPGEEKTVTFTLDKRAFAYYNTQIKDWHVESGEFLILIGRSSRDIVLKESVRVNSTVKIRKRFTVNSAVEDVMSDSSAAAVLGPVLKEITDALQIDMDNAHDMMAANIKNMPLRSLVGYSQGRLSEEMLEELVDKINNVE",6.3%,<3%,0.5%
"325 (protein, listed as Ilumatobacter coccineus) MTGTSTGARRGIICGVIDIDAALNALSLADKCRLVAGETNWRTKAFPEAGIPQLKMSDGPTGIRGEGHGSAGTPGVAVPAGITLGASWDPDLLGEIGDLLGREAVRKRAHVLLGPTVNLHRTPIGGRTFECYSEDPELSGALAASYVRAVQRHDVAVTVKHFVCNDTEIDRMTVDVDVDERPLRELYLRPFERAVKEGGAWGIMTAYNRVAGEFAAQNRRLLTDILRGEWGFDGFAVSDWFGVHEPVGAANAGLTLEMPAPVRVYGDRLLAAIEAGSVTEETVDGLVRDLLGVMNRTKADERNCDEPELSIDDPAERALTRRAAIGGTVLLRNEPIDSSGHPVLPVALDGLASMAVIGPNAVIDRSMGGGSASLTPFDHRTLLDALSDRVGPDTDVRYEPGVRIDRLTPIVRSARLRTPDGADGLRLEYVNGTDWDAPATIDTVTSSSMIRFFGTTPDEIDATAFGARVSGSFVPEIDGPHEIGVVSTGPVTMTARTGDGDPIVVVDDPDMLLPRTREFFGYGSEESVATVECRAGEPVHLEVKWRTSAENGFAALRIGVRPPEPSDLIDRAVAAAAEADVAVVVVGTNDEWETEGFDREVMSLPGRQDELVERVVAANPNTVVVVNAGSPVSMDWAADDHPRPAAAIVTSFFAGQEQAEAMVDVLTGVADPAGRLPITYPQRLADTPAFEHHEPVRSAGRPPQQRYAEGLFIGHRHYEANDVAPRFWLGHGLSYGSVEWSTPTASRTSDTAASLDDSPIVVSLSLTNTSDRDATSVVQCYVAPIAPSVERPVRELKAWAKESLPAQARRDVSIELGSSAFRHWDEESGAWKVEPGEYDIVVATSADPDDEHERLRITIT",6.3%,<3%,0.9%
"116 (protein, listed as Streptomyces netropsis) MPDDPVDVLDLDTKARLLSGQDMWSLPAVPRIGLRSIVMSDGPVGVRGVRWTADDPSLALPSPTALAATWDPALARRVGRLLAAEARRKGVHVLLAPTVNLHRSPLGGRHFEAYSEDPYLTARIGTGYVRGVQDGGVAAVVKHFVANDAETERFTVNNKVSARALRELYLAPFEAIVKDARPWGVMAAYNQVNGVTMTEHGHLQNDVLRGEWGFDGIVVSDWLAARDTVRAALGGLDVAMPGPVTVYGPALAAAVRAGDVPESVVDDAVRRVLRLADRVGALGEATRARPSAPDGRALAREVAARSFVLVRNAPVRGAPALPLDPAPGLRVALLGGAARDARILGGGSAQVFPARVVSPLDGLRAALPEGAVTYAVGAEPGDELLPAGAGFTLRAVCRDAAGRMLGEERMPSGMVQWLGDLPAGVGYEALRTVELTGTFTPRESGPHVFGTKGVGAFRLVVGGRTLFDGEQGADHADPFEAFLGSPVERGRVVLAAGTAVEVSLTCVVAEPDGAPIEAVGFCLLHREPERDAEELLAEAVAVAASADAAVVVVATTERVESEGFDRTTLALPGRQDELVARVAAVSPRTVVVVNSGSPVELPWRDDVAAVLLGWFPGQEAGGALADVLLGGCEPGGRLPTTWPVRLADAPVTRVAPVGGELAYAEGLFIGYRAWEKARATPAYAFGHGLGYTDWSYETLDMGGTGTARVRVRNTGSRPGREVVQVYLAVPPGDRAGRPVRRLAGFASVEAGPGETVEAVVALDPRAFEVWDDEAAGWRRIPGTYTAEAGRSIADRRLTAPVEVA",4.7%,<3%,0.5%
"240 (protein, listed as Acidipropionibacterium acidipropionici) MTELTDLPQYLLIRLLSGADDWRTVAAGEVGVRSLHLSDGPHGLRVPDVKGGSLPATCFPTAVTLGASWDRDLAEEVGGALAVEAGALGVDVVLGPGMNIKRHPLGGRNFEYLSEDPVVSGELAAAMVRGIQGRGVAACVKHFAVNNQETMRLCVDAVVDERTLHEIYLAAFETVVRTARPAAVMASYNEINGTAATTNRSLITEVLRGRWGFDGLVMSDWGAVWDRVAALEAGLDLEMPSSAGAFDRSVAAALDSGRLGLDAVLTSVSRLVGLQNRISPPRIDRIPADEHDALARRAATAGTVLAANDGILPLAAGSKVAVIGAFAARPRYQGSGSSQVNPTRVTGLLEALGAKDVEVGYARGYDPEEQRTDAVLVAEAAELAAASDVAVVVTGPPEELESEGYDRTGMDLPAQHDALVRAVLAANPRTVIVVCSGSPVALPWADRAAAVVLAGLGGQAGGGALADVLVGDAEPGGRLAETWPHDLSEVASDPWFPGTGAMVQYREGSAIGYRHTATNGVEPAFCFGHGLSYTRFDWRDAVLTEPWIVAGDGLSVDVEVANVGDRAGSDVVQVYLSDRTGVVSRPRRWLAGFAKVRLEAGQSRRVQVAVGARELGFWDVEKHDWVVPSGHFDVELGRSAHDIVATLDLVVSEGADHAPERAWTPLIAEDDEAFAARLGHEIPRPAATTPFTARSTLGQVRHTPLGGLLHAAAMRRLAAGVRDPRFRRMMEHTVDELPLRNLPSMTKGLVPLESVSLIVDVLNGAPDEILRRSFGGALGLGRGVVDAGRGLWGELSSRIGRLGR",9.0%,<3%,0.5%
